Measured values as given in PMC2151542.

Biological target: MthK channel (Methanobacterium thermoautotrophicum) (UniProt O27564)
Experiment: single-channel recording in planar lipid bilayers

“charybdotoxin (from UniProt P13487 23-59) (peptide)” was tested. Which Kd did it give?
The Kd was 1 nM.
